# Source: article doi:10.1101/764241
# Like-named read-outs stand apart in the source and are kept apart here.
# Assays:
# [1] = biological target: Pythium ultimum Gat1 (Pythium ultimum); assay: AUC
# [2] = biological target: Pythium ultimum Gat1 (Pythium ultimum); assay: AUC; remark: listed apart in the source
# [3] = biological target: Toxoplasma gondii Gat1 (Toxoplasma gondii); assay: SEC + AUC
stoichiometry N [1],fold higher dimer affinity than Oc-glycogenin-1 (reported Kd 0.85 µM) [2],stoichiometry N [2],Substance,stoichiometry N [3]
2,> 2 fold,2,Pythium ultimum Gat1 (enzyme),
,,,Toxoplasma gondii Gat1 (enzyme),2
